Data on 2 proteins can be found in paper PMC12216690, “MORC2 is a phosphorylation-dependent DNA compaction machine” (Nature Communications, 2024).

The data set concerns the molecule itself. Put plainly: cryo-EM structure; 2 µM protein with AMP-PNP, with or without three-fold molar excess of 60 bp DNA; C2 symmetry imposed.

B1: full-length MORC2 ATPase-dead mutant (MORC2^S87A) (natural protein, human, UniProt Q9Y6X9 1-1032, looked up)
chain: MAFTNYSSLNRAQLTFEYLHTNSTTHEFLFGALAELVDNARDADATRIDIYAERREDLRGGFMLCFLDDGAGMDPSDAASVIQFGKAAKRTPESTQIGQYGNGLKSGSMRIGKDFILFTKKEDTMTCLFLSRTFHEEEGIDEVIVPLPTWNARTREPVTDNVEKFAIETELIYKYSPFRTEEEVMTQFMKIPGDSGTLVIIFNLKLMDNGEPELDIISNPRDIQMAETSPEGTKPERRSFRAYAAVLYIDPRMRIFIHGHKVQTKRLSCCLYKPRMYKYTSSRFKTRAEQEVKKAEHVARIAEEKAREAESKARTLEVRLGGDLTRDSRVMLRQVQNRAITLRREADVKKRIKEAKQRALKEPKELNFVFGVNIEHRDLDGMFIYNCSRLIKMYEKVGPQLEGGMACGGVVGVVDVPYLVLEPTHNKQDFADAKEYRHLLRAMGEHLAQYWKDIAIAQRGIIKFWDEFGYLSANWNQPPSSELRYKRRRAMEIPTTIQCDLCLKWRTLPFQLSSVEKDYPDTWVCSMNPDPEQDRCEASEQKQKVPLGTFRKDMKTQEEKQKQLTEKIRQQQEKLEALQKTTPIRSQADLKKLPLEVTTRPSTEEPVRRPQRPRSPPLPAVIRNAPSRPPSLPTPRPASQPRKAPVISSTPKLPALAAREEASTSRLLQPPEAPRKPANTLVKTASRPAPLVQQLSPSLLPNSKSPREVPSPKVIKTPVVKKTESPIKLSPATPSRKRSVAVSDEEEVEEEAERRKERCKRGRFVVKEEKKDSNELSDSAGEEDSADLKRAQKDKGLHVEVRVNREWYTGRVTAVEVGKHVVRWKVKFDYVPTDTTPRDRWVEKGSEDVRLMKPPSPEHQSLDTQQEGGEEEVGPVAQQAIAVAEPSTSECLRIEPDTTALSTNHETIDLLVQILRNCLRYFLPPSFPISKKQLSAMNSDELISFPLKEYFKQYEVGLQNLCNSYQSRADSRAKASEESLRTSERKLRETEEKLQKLRTNIVALLQKVQEDIDINTDDELDAYIEDLITKGD
notes: MORC2, human, UniProt Q9Y6X9, full length with S87A; Only the ATPase domain is modelled in the cryo-EM map; also called S87A mutant; source: Sf9 insect cells, purified (Strep-Tactin, HiTrap Q, Superose 6 SEC)
Take B1: the binding result was “binds”.

B2: MORC2 phosphodead (MORC2^PD) mutant (natural protein, human, UniProt Q9Y6X9 1-1032, looked up)
chain: MAFTNYSSLNRAQLTFEYLHTNSTTHEFLFGALAELVDNARDADATRIDIYAERREDLRGGFMLCFLDDGAGMDPSDAASVIQFGKSAKRTPESTQIGQYGNGLKSGSMRIGKDFILFTKKEDTMTCLFLSRTFHEEEGIDEVIVPLPTWNARTREPVTDNVEKFAIETELIYKYSPFRTEEEVMTQFMKIPGDSGTLVIIFNLKLMDNGEPELDIISNPRDIQMAETSPEGTKPERRSFRAYAAVLYIDPRMRIFIHGHKVQTKRLSCCLYKPRMYKYTSSRFKTRAEQEVKKAEHVARIAEEKAREAESKARTLEVRLGGDLTRDSRVMLRQVQNRAITLRREADVKKRIKEAKQRALKEPKELNFVFGVNIEHRDLDGMFIYNCSRLIKMYEKVGPQLEGGMACGGVVGVVDVPYLVLEPTHNKQDFADAKEYRHLLRAMGEHLAQYWKDIAIAQRGIIKFWDEFGYLSANWNQPPSSELRYKRRRAMEIPTTIQCDLCLKWRTLPFQLSSVEKDYPDTWVCSMNPDPEQDRCEASEQKQKVPLGTFRKDMKTQEEKQKQLTEKIRQQQEKLEALQKTTPIRSQADLKKLPLEVTTRPSTEEPVRRPQRPRSPPLPAVIRNAPSRPPSLPTPRPASQPRKAPVISSTPKLPALAAREEASTSRLLQPPEAPRKPANTLVKTASRPAPLVQQLSPSLLPNSKSPREVPSPKVIKTPVVKKTEAPIKLAPATPSRKRAVAVADEEEVEEEAERRKERCKRGRFVVKEEKKDSNELADAAGEEDSADLKRAQKDKGLHVEVRVNREWYTGRVTAVEVGKHVVRWKVKFDYVPTDTTPRDRWVEKGSEDVRLMKPPSPEHQSLDTQQEGGEEEVGPVAQQAIAVAEPSTSECLRIEPDTTALSTNHETIDLLVQILRNCLRYFLPPSFPISKKQLSAMNSDELISFPLKEYFKQYEVGLQNLCNSYQSRADSRAKASEESLRTSERKLRETEEKLQKLRTNIVALLQKVQEDIDINTDDELDAYIEDLITKGD
notes: MORC2, human, UniProt Q9Y6X9, full length with six serine to alanine mutations in the CTD; Only the ATPase domain is modelled in the cryo-EM maps; also called MORC2^PD-DNA; source: Sf9 insect cells, purified (Strep-Tactin, HiTrap Q, Superose 6 SEC)
As to B2, the binding result is on record as “binds”.
